# Measurements as given in the nanobody polyreactivity screen of Harvey et al. (2022).
# Assay: yeast display, Sf9 membrane polyspecificity reagent, FACS + sequencing; frameworks hold sequencing errors
# Method in brief: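 Galactose induction of a Saccharomyces cerevisiae BJ5465 synthetic nanobody display library ran 36–48 hours. The cells were then stained for 1 hour at 4 °C with 10% biotinylated, detergent-solubilized Sf9 membrane reagent, pulled down on streptavidin microbeads and FACS-sorted into low and high (top ~1%) gates on expression and reagent-binding fluorescence. Labels for polyreactivity follow the gate of origin.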
row,Sequence,polyreactivity (PSR sort gate)
1,QVQLVESGGGLVQAGGSLRLSCAASGFIIEVNAMGWYRQAPGKERELVARIDWSGGSTYYADSVKWRFTISRDNAKNTVYLQMNILKPEYTEVYYCNAEWTYADPNEYGYWGQGTLVTVSS,low polyreactivity
2,QVQLVESGGGLVQAGGSLRLSCAASGFIIFRYAMGWYRQAPGKERELDAAITRSGGSTYYADSVKGRFTISRDNAKNSVYLQMNCLKPEDTAVYYCNASRQCFTYARMDYWGQGTQVTVSS,high polyreactivity
3,QVQLVESGGGLVQAGGSLRLSCAASGFIIGRNVMGWYRQAPGKERELVAAISYSGGSTYYADSVKGRFTISRDNAKNTVYLQMNSLKPEDTAVYYCNAEAWVSQDWCQWVAYDYWGQGTQVTVSS,high polyreactivity
4,QVQLVESGGGLVQAGGSLRLSCAASGFIIGWYVMGWYRQAPGKERELVAAITWDSTSTYYADSVKGRFTISRDNAKNTVYLQMNSLKPEDTAVYYCAADRLDRYYYWGEGTQVTVSS,low polyreactivity
5,QVQLVESGGGLVQAGGSLRLSCAASGFIIKFYAMGWYRPAPGKERELVAAISWRGGSTYYADSVKGRFTISRDIAKNTVYLQMNSLKPEDTAVYYCNKAGKARYWGRYNYWGQGTQVTVSS,high polyreactivity
6,QVQLVESGGGLVQAGGSLRLSCAASGFIIRRYAMGWYRPAPGKERELVARISFRGGSTYYADSVKGRFTISRDNAKNTVYLQMNSLKPEATAVYYCNRDPLYSKVVDGDYWGHGTQVTVSS,high polyreactivity
7,QVQLVESGGGLVQAGGSLRLSCAASGFIIRSYAMGWYRQAPVKERELVAAISRGSRTYYADSVKGRFTISRDNAKNTVYLQMNSLKPEDTAVYYCNADPNVPVETFDYWGQGTQVTVSS,high polyreactivity
8,QVQLVESGGGLVQAGGSLRLSCAASGFIITSYAMGWYRQAPGKERELVAAIRRTGGTYYADSVKGRFTISRDNAKNTVYLQMNSLKPEDTAVYYCNTRLSYRNRGFDYWGQGTQVTVSS,high polyreactivity
9,QVQLVESGGGLVQAGGSLRLSCAASGFIIYTYAMGWYRQAPGKERELVAAISRGGRTNYADSVKGRFTISRDNAKNTVYLQMNSLKPEDTAVYYCASSYSHRYDYWGQGSQVTVSS,high polyreactivity
10,QVQLVESGGGLVQAGGSLRLSCAASGFIIYYYAMGWYRQAPGKERELVARISRRGGSTYYADSVKGRFTISRDNAKNTVYLQMNSLKPEDTAVYYCNAERRYSWYSQGDYWGQGTQVSVSS,high polyreactivity
11,QVQLVESGGGLVQAGGSLRLSCAASGFILARNAMGWYRQAPGKERELVAAITRRGGSTYYADSVKGRFTISRDNAKNTVYLQMNSLKPEDTAVYYCAAAAGPIPQERYYWGQGTHVTVSS,high polyreactivity
12,QVQLVESGGGLVQAGGSLRLSCAASGFILAWYAMGWYRQAPGKERELVAAISTSGDSTYYADSVKGRFTISRDNAKNTVYLQMNSLKPEDTAVYYCAAGTFKPYWRKFEYWGQGTQVTLSS,high polyreactivity
13,QVQLVESGGGLVQAGGSLRLSCAASGFILDTYGMGWYRQAPGKERELVAAISQSDVSTYYADSVKGRFTISRDNAKNTVYLQMNSLKQEDTAVYYCAADRGGLRWFWQVVYDYWGQGTQVTVSS,low polyreactivity
14,QVQLVESGGGLVQAGGSLRLSCAASGFILEAYAMGWYRQAPGKERELVAAITRRGTRTYYADSVKGRFTLSRDNAKNTVYLQMNSLKPEDTAVYYCNAESRSTWVAGYDYWGQGTQVTVSS,high polyreactivity
15,QVQLVESGGGLVQAGGSLRLSCAASGFILEGYAMGWYRQAPGKERELVAAITRRGTRTYYADSVKGRFTISRDNAKNTVYLQMNSLKPEDTAVFYCNAESRSTWVAGYDYWGQGTQVTVSS,high polyreactivity
16,QVQLVESGGGLVQAGGSLRLSCAASGFILGGYAMGWYRQAPGKERELVAAISWSSGSTYYADSVKGRFTISRDNAKTTVYLQLNSLKPEDTAVYYCAAVGAYDYWGQGTQVTVSS,low polyreactivity
17,QVQLVESGGGLVQAGGSLRLSCAASGFILGLNAMGWYRRAPGKEREFVADISWSGDSTYYADSVKGRFTISRDNAKNTVYLQMNSLKPEDTAVYFCAADRYYNWGYYYWGQGTQVTVSS,low polyreactivity
18,QVQLVESGGGLVQAGGSLRLSCAASGFILGQYTMGWYRQAPGKERELVASINGSDGITYYADSVKGRFTISRDNAKNTVYLQMNSLKPEDTAVYYCARPPRHYTFWGRRFYYWGQGTQVTVSS,low polyreactivity
19,QVQLVESGGGLVQAGGSLRLSCAASGFILGTNAMGWYRQAPGKERELVAAISYSGGSTNYADSVKGRFTISRDNAKNTVYLQMYSLKPEDTPVYYCNRDPRKYGKLDYWGQGTQVTVSS,low polyreactivity
20,QVQLVESGGGLVQAGGSLRLSCAASGFILKPYAMGWYRQAPWKERELVAAITYSGSSTYYADSVKGRFTISRDNAKNTVYLQMNSLKPEDTAVYYCAARDWSHPRRLFYWGQGTQVTVSS,high polyreactivity
21,QVQLVESGGGLVQAGGSLRLSCAASGFILNAYTMGWYRQAPGKERELVATITINGGSTYYADSVKGRFTISRDNAKNTVYLQMNSLKPEDTPVYYCNADYWYKYDYWGQGTQVTVSS,low polyreactivity
22,QVQLVESGGGLVQAGGSLRLSCAASGFILQYNAMGWYRQAPGKERELVAAITRSGVSTYYADSVKGRFTISRDNAKNTVYLQMNSLKPEDTAVYYCAATGGDRYEAYYYWGQGTQVTVSS,low polyreactivity
23,QVQLVESGGGLVQAGGSLRLSCAASGFILRYNAMGWYRQAPGKERELVAAISYTGDRTYYADSVKGRFTISRDNAKNTVYLQMNSLKPEDTAVYYCNAGKGQRALVRIGSKLMYYWGQGTQVTVSS,high polyreactivity
24,QVQLVESGGGLVQAGGSLRLSCAASGFILSDNAMGWYRQAPGKEREFVAAITSSGGSTHYADSVKGRFTISRDNAKNTVYLQMNSLKPEDTAVYYCAVGRPYWYDVWSFVSHYDYWGQGTQVTVSS,low polyreactivity
25,QVQLVESGGGLVQAGGSLRLSCAASGFILSDNAMGWYRQAPGKEREFVAAITSSGGSTHYADSVKGRFTISRDNAKNTVYLQMNSLKPEDTAVYYCNTYPYLWGQGTQVTVSS,low polyreactivity
26,QVQLVESGGGLVQAGGSLRLSCAASGFILSDYAMGWYRQAPGKERELVAGINSGGSTYYADSVKGRFTISRDNAKNTVYLQMNSLIPEDTAVYYCAAGVDYWWLVHFLYYYWGQGTQVTVSS,high polyreactivity
27,QVQLVESGGGLVQAGGSLRLSCAASGFILSVYAMGWYRQAPGTETELVAAISKRGGSTNYADSVKGRFTISRDNAKDTVYLQMNSLKPEDTAVYYCAKARAGFLYDHWGQGTQVTVSS,high polyreactivity
28,QVQLVESGGGLVQAGGSLRLSCAASGFILTQYAMGWYREAPGKERELVASISSSGSTYYADSVKGRFTISRDNAKNTVYLQMNSLKPEDTGVYYCATPGPAVHGTRGEYDYWGQGTQVTVSS,high polyreactivity
29,QVQLVESGGGLVQAGGSLRLSCAASGFILTSYAMGWYRKAPGKERELVAAISSRGGRTYYADSVKGRFTISRDNEKNTVYLQMNSLKPEDTAVYYCNAGVYVVGDFDYWGLGTQVTVSS,high polyreactivity
30,QVQLVESGGGLVQAGGSLRLSCAASGFILYFKAMGWYRQAHGKERELVAAITSDGGSTYYADSLKGRFTISRDNAKNTVYLQMNSLKPEDTAVYYCAADASTWYTEEYWGQGTQVTVSS,low polyreactivity
